From patent US20220135701A1 (Genentech, published 2022)
Read-outs that look alike come from different tables or passages of the source.

Key:
[1] = biological target: T1, mouse MerTK on mouse macrophages (mouse, UniProt Q60805 19-994); test: cell-based or functional assay
T1 sequence (looked up): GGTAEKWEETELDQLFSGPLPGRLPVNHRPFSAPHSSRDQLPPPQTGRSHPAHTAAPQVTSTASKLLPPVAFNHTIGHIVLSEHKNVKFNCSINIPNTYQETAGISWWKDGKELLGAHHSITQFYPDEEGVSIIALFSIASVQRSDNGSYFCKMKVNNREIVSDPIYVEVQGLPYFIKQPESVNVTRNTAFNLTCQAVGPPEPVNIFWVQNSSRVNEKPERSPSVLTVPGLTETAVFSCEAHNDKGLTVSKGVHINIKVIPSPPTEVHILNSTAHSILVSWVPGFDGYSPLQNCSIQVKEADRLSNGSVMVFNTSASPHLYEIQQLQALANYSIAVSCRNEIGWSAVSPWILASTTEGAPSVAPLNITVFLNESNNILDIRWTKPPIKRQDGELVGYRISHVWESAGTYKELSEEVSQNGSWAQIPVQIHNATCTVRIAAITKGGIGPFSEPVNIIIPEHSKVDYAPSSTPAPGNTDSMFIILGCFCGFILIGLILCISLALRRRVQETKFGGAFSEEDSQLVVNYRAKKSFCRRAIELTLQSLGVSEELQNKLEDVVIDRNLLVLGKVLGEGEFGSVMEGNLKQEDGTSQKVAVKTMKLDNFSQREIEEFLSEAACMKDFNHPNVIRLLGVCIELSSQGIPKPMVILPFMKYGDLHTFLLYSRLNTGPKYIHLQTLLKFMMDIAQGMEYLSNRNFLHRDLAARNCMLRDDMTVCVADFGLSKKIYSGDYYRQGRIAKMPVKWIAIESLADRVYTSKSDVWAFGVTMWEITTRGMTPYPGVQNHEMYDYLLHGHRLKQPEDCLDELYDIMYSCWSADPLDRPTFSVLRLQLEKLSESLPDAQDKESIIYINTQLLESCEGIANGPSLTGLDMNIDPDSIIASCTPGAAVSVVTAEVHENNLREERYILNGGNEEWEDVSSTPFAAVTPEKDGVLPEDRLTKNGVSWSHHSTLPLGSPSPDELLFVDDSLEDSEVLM

[2] = biological target: T2, human MerTK (human, UniProt Q12866 26-499); test: SPR BIAcore T200, Ab captured, 37C
T2 construct: also called HuMER
T2 sequence: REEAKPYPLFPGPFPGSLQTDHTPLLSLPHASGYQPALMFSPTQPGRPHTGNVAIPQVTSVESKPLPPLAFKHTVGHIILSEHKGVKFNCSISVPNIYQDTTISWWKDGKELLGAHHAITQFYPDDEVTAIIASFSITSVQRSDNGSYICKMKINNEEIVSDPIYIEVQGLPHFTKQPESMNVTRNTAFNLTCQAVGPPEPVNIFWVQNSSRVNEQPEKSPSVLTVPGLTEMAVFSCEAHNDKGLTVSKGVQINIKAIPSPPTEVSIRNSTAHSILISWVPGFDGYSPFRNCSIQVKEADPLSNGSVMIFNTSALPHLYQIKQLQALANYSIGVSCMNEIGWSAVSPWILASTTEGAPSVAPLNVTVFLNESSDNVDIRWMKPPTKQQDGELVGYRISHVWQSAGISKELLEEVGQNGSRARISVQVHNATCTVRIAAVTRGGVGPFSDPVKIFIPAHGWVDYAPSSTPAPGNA

[3] = biological target: T2, human MerTK; test: SPR BIAcore T200, Ab captured, 37C; remark: listed apart in the source
Outline: (§1)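 Rabbit or humanized antibody captured to ~100 RU; MerTK injected as 3-fold dilutions from 0.4 nM to 100 nM in HBS-EP (HEPES pH 7.4) at 30 μl/min, at 25° C. or 37° C. kon and koff fitted to a 1:1 Langmuir model; KD = koff/kon.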

[4] = biological target: T3, cynomolgus monkey MerTK (cynomolgus monkey, UniProt A0A2K5V1H9 32-505); test: SPR BIAcore T200, Ab captured, 37C
T3 construct: Soluble analyte in SPR; also called Cyno MerTK
T3 sequence: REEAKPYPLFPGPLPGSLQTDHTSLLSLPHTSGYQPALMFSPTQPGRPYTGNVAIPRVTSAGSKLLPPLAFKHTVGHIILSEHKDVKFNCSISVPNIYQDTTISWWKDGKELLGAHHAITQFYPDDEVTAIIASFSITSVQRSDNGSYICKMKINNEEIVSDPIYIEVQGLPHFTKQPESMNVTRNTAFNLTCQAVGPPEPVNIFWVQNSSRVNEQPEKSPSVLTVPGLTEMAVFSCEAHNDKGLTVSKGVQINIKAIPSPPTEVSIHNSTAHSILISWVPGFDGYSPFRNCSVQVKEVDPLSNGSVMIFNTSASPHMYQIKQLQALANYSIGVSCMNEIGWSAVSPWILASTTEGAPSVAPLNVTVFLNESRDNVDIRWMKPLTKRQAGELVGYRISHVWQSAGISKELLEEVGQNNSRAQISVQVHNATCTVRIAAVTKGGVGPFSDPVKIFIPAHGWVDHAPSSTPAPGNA
Outline: as §1

[5] = biological target: T2, human MerTK; test: SPR BIAcore T200, Ab captured, 37C; remark: listed apart in the source
Procedure: (§2) All binding affinity determinations were obtained using Surface Plasmon Resonance (SPR) measurements from a BIAcore™-T200 instrument. Briefly, each rabbit or humanized antibody was captured to achieve approximately 100 RU (Response Units). Then, 3-fold serial dilutions of MerTK from various species (0.4 nM to 100 nM) diluted in HBS-EP buffer (0.01M HEPES pH 7.4, 0.15M NaCl, 3 mM EDTA and 0.05% v/v surfactant P20) was injected into the BIAcore™-T200 instrument at 25° C. or 37° C. with a flow rate of 30 μl/min. Association rates (kₒₙ) and dissociation rates (koff) were calculated using a simple one-to-one Langmuir binding model (BIAcore T200 evaluation software version 2.0). The equilibrium dissociation constant (KD) was calculated as the ratio koff/kₒₙ.

[6] = biological target: T3, cynomolgus monkey MerTK; test: SPR BIAcore T200, Ab captured, 37C; remark: listed apart in the source
Procedure: as §2

[7] = biological target: T2, human MerTK; test: SPR BIAcore T200, Ab captured, 25C
Outline: as §1

[8] = biological target: T3, cynomolgus monkey MerTK; test: SPR BIAcore T200, Ab captured, 25C
Outline: as §1

[9] = biological target: T4, mouse MerTK (mouse, UniProt Q60805 23-496); test: SPR BIAcore T200, Ab captured, 25C
T4 construct: also called MuMER
T4 sequence (looked up): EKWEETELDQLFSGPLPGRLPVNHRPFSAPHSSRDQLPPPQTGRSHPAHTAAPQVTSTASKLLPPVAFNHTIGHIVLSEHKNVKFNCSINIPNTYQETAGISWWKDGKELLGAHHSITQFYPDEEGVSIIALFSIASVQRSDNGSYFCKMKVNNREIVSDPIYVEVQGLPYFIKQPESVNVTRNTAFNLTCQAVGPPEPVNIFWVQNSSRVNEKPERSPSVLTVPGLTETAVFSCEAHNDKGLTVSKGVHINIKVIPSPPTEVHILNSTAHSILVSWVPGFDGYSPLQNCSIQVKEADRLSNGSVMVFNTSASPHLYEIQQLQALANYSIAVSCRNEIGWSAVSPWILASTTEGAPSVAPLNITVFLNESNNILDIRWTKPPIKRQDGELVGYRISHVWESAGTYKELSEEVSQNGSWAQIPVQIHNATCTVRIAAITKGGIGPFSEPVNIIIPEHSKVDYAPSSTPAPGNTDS
Outline: as §1

[10] = biological target: T2, human MerTK; test: SPR BIAcore T200, Ab captured, 37C; remark: listed apart in the source
Procedure: as §2

[11] = biological target: T3, cynomolgus monkey MerTK; test: SPR BIAcore T200, Ab captured, 37C; remark: listed apart in the source
Procedure: as §2

[12] = biological target: T5, rat MerTK (rat, UniProt P57097 23-496, limits assumed); test: SPR BIAcore T200, Ab captured, 37C
T5 construct: Soluble analyte in SPR
T5 sequence (looked up): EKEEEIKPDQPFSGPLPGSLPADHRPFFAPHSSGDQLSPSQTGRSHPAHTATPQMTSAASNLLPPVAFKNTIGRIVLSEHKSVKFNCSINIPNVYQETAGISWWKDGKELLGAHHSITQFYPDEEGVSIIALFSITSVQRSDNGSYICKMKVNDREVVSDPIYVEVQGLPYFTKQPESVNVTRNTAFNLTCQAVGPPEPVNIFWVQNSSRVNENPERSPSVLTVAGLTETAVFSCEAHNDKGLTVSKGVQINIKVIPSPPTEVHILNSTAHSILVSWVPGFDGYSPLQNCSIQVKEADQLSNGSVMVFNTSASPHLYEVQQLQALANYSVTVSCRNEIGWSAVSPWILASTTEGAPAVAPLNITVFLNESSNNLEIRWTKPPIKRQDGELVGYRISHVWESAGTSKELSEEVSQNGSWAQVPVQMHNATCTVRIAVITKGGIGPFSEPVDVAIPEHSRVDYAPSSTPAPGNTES
Procedure: as §2

[13] = biological target: T4, mouse MerTK; test: SPR BIAcore T200, Ab captured, 37C
Procedure: as §2

[14] = biological target: T6, HuMER (R26-A499) (human, UniProt Q12866 26-499); test: SPR BIAcore T200, Ab captured, 25C
T6 construct: Extracellular domain with both Ig-like and both fibronectin-like domains; also called human MerTK extracellular domain
T6 sequence: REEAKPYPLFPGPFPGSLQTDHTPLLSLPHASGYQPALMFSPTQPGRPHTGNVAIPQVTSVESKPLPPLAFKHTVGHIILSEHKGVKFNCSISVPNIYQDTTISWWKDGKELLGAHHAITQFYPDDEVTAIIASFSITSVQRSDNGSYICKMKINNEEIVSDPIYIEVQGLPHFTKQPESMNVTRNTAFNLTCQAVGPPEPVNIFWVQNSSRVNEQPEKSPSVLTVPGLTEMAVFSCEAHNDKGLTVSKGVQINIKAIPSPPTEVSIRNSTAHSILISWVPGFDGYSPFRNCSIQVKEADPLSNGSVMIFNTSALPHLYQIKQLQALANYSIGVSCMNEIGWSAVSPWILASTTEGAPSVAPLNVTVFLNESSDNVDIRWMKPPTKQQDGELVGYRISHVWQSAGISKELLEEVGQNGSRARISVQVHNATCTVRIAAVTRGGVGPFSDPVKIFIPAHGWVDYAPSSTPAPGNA
Outline: (§3)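 Rabbit antibody captured to ~100 RU; MerTK domain injected as 3-fold dilutions (0.4–100 nM) in HBS-EP pH 7.4 at 25 °C, 30 μl/min. kon and koff from 1:1 Langmuir fit; KD = koff/kon.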

[15] = biological target: T7, MuMER (E23-S496) (mouse, UniProt Q60805 23-496); test: SPR BIAcore T200, Ab captured, 25C
T7 construct: range 23-496; also called mouse MerTK extracellular domain
T7 sequence (looked up): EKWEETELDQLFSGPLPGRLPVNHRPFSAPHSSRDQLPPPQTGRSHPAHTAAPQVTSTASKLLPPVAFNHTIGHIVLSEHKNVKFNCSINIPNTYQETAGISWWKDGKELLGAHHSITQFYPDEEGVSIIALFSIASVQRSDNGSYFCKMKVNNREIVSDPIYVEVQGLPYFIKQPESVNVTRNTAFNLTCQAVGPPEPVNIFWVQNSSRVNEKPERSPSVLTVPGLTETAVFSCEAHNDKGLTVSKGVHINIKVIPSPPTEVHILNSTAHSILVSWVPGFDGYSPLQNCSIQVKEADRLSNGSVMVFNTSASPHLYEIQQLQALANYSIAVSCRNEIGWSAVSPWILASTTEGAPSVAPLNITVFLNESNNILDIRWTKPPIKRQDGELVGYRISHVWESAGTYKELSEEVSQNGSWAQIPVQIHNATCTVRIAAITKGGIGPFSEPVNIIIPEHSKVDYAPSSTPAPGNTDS
Outline: as §3

[16] = biological target: T5, rat MerTK; test: SPR BIAcore T200, Ab captured, 37C; remark: listed apart in the source
Outline: as §1

[17] = biological target: T4, mouse MerTK; test: SPR BIAcore T200, Ab captured, 37C; remark: listed apart in the source
Outline: as §1

Molecule: recombinant human GAS6-Fc protein (from UniProt Q14393 31-678) (Fc fusion)
- pAKT levels in macrophages incubated with the ligand [1]: 84 pM

B1: h13B4.v1 (antibody, V domains shown)
VH: EQQLVESGEGLVQPGGSLRLSCAVSGFSLSSYAMGWVRQAPGKGLEWIGIINSYGNTYYANWAKGRFTISRDSSKNTVYLQMGSLRAEDMAVYFCARDPGVSSNLWGPGTLVTVSS
VL: DVQMTQSPSTLSASVGDRVTITCQASQNIYSGLAWYQQKPGKPPKLLIYGASKLASGVPSRFSGSGSGTEFTLTISSLQPDDFATYYCQATYYSSNSVAFGGGTKVEIK
notes: also called h13B4.V1 (Parent); 13B4 Humanized mAb V1
- Kd [2]: 4.8 nM
- Kd [3]: 4.8 nM
- Kd [4]: 5.6 nM
- Kd [5]: 4.3 nM
- Kd [6]: 5 nM

B2: Rbt10C3 (antibody, V domains shown)
VH: QSLEESGGRLVTPGTPLTLTCTASGFSLSGYTMGWVRQAPGKGLEYIGVISSGGTTYYTNWAKGRFTISKTSTTVDLKITSPTTEDTATYFCARVAFTAYGGGGFPTLHRLDLWGQGTLVTVSS
VL: AQVLIQTASSVSAAVGGTVTISCQSSESVYNNDYLAWYQQKPGQPPKLLIYSASTLASGVPSRFKGSGSGTQFTLTISDLECDDAATYYCAGGYLGNNVFGGGTEVVVK
notes: Recombinant rabbit monoclonal antibody, Expi293, protein A purified
- Kd [7]: 3.4 nM
- Kd [8]: 3 nM
- Kd [9]: 0.7 nM
- Kd [10]: 9.9 nM
- Kd [11]: 4.1 nM
- Kd [12]: 2.4 nM
- Kd [13]: 0.8 nM
- Kd [14]: 3.4 nM
- Kd [15]: 0.7 nM

B3: h10C3.v1 (antibody, V domains shown)
VH: EQQLVESGGGLVQPGGSLRLSCAASGFSLSGYTMGWVRQAPGKGLEYIGVISSGGTTYYTNWAKGRFTISKDSSKNTVYLQMGSLRAEDMAVYFCARVAFTAYGGGGFPTLHRLDLWGQGTLVTVSS
VL: DQVLTQSPDSLAVSLGERATINCQSSESVYNNDYLAWYQQKPGQPPKLLIYSASTLASGVPDRFSGSGSGTDFTLTISSLQAEDVAVYYCAGGYLGNNVFGGGTKVEIK
notes: also called h10C3.V1 (Parent); 10C3 Humanized mAb V1
- Kd [2]: 13.8 nM
- Kd [10]: 12.9 nM
- Kd [11]: 5.3 nM
- Kd [12]: 3.3 nM
- Kd [13]: 1.1 nM
- Kd [3]: 11.6 nM
- Kd [4]: 5.3 nM
- Kd [16]: 3.3 nM
- Kd [17]: 1 nM
